Columns and labels:
Assay in all cases: pull-down binding Z-score (relative to library population); higher = stronger binding
Details in all cases: RNA library: Library-2
[1] = tested on: TO-3-N3-2 (biotin conjugate)
In short: (§1)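 The RNA library, end-labelled with Cy5 or Cy3, was heat-folded in phosphate/NaCl/KCl buffer, and 1 μg was incubated at 25 °C for 60 min with streptavidin beads carrying 100 pmol of biotin-conjugated small molecule. Hot SDS released the bound RNA, which was then hybridised to a DNA barcode microarray for 20 h at 55.5 °C. For scoring binding, signal from beads alone was subtracted, replicate barcoded probes were averaged after discarding the highest and lowest, and each value was turned into a Z-score from the library mean and standard deviation.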

[2] = tested on: TO-N3-2 (biotin conjugate)
In short: as §1

[3] = tested on: TO-3-N3 (biotin conjugate)
In short: as §1

[4] = tested on: TO-N3 (biotin conjugate)
In short: as §1

Row | Sequence | pull-down binding Z-score [1] | pull-down binding Z-score [2] | pull-down binding Z-score [3] | pull-down binding Z-score [4]
1 | GAGACAUUUAAACUGUCUU | -0.286 | -1.06 | -0.469 | -0.91
2 | GAGACGGUCGGGUCCAGAUAUUCGUAUCUGUCGAGUAGAGUGUGGGCUCC [Broccoli] | 0.495 | 1.99 | 0.184 | 1.12
3 | GAGAGUGUUCAGACAUUCUU [SHAPE_invivo_SARS-CoV-2_Motif_44] | -0.0995 | -0.51 | 0.913 | 0.718
4 | GAGCUGCCCUGUCGGUGAAGCUC [IAV_invivo_NA_6_Motif_6+IAV_invivo_NA_6_Motif_6] | -0.0787 | 0.384 | 0.171 | 0.217
5 | GAGGCACUUAAAAUGACCAUGGCCUC [IAV_invivo_NS1_NEP_8_Motif_6+IAV_invivo_NS1_NEP_8_Motif_6] | 0.446 | -0.305 | 0.555 | 0.233
6 | GAGGCUAUGUACACACCGCAUACAGUCUUACAGGCUGUUGGGGCUUGUGUUCUUUGCAAUUC [SHAPE_invitro_SARS-CoV-2_Motif_296] | -0.158 | 0.485 | -0.256 | 0.112
7 | GAGGGGUGUAUACUGCUGCCGUGAACAUGAGCAUGAAAUUGCUUGGUACACGGAACGUUCUGAAAAGAGCUAUGAAUUGCAGACACCUUUU | -0.11 | 0.475 | -0.406 | -0.034
8 | GAGGUAAGUACGAUACUUACCUG [U1snRNP5ss-7] | -0.544 | -0.876 | -0.856 | -1.17
9 | GAGGUAAGUAUGAUACUUACCUG [U1snRNP5ss-8] | -0.377 | -1.02 | -0.664 | -0.957
10 | GAGGUGAGCAGGAUACUUACCUG [U1snRNP5ss-16] | -0.182 | 0.602 | -0.342 | 0.0508
11 | GAGGUGAUGCAGAUACUUACCUG [U1snRNP5ss-20] | 0.169 | 0.343 | 0.762 | 0.68
12 | GAGUAUUAGGUUUGAAAACCCUUGCUACUC [SHAPE_invivo_SARS-CoV-2_Motif_136] | -0.359 | -0.731 | -0.732 | -0.966
13 | GAGUCCUCAUCGGAGGACUU [IAV_invivo_NS1_NEP_8_Motif_11+IAV_invivo_NS1_NEP_8_Motif_11] | -0.368 | -1.36 | -0.347 | -0.729
14 | GAGUGCUAUCUAACCUUAACUUGCCUGGUUGUGAUGGUGGCAGUUUGUAUGUAAAUAAACAUGCAUUCCACACACCAGCUUUUGAUAAAAGUGCUU [DMSMaPseq_invitro_SARS-CoV-2_Motif_343] | -0.487 | -0.238 | -0.749 | -0.637
15 | GAGUUACACAGAAUGUUCUCUAUGAGAACCAAAAAUUGAUUGCCAACCAAUUUAAUAGUGCUAUUGGCAAAAUUCAAGACUC | 0.305 | -0.226 | -0.57 | -0.581
16 | GAGUUUUUAGUGCAGUUGGUAACAUCUGUUACACACCAUCAAAACUU | -0.12 | 0.396 | -0.305 | 0.0323
17 | GAUAACAACUUC [SHAPE_invitro_SARS-CoV-2_Motif_16] | 0.0515 | -0.77 | 0.519 | 0.252

Row | Sequence | pull-down binding Z-score [1] | pull-down binding Z-score [2] | pull-down binding Z-score [3] | pull-down binding Z-score [4]
18 | GAUCAGUUUCACCUAAACUGUUC | -0.626 | -1.08 | -1.06 | -1.46
19 | GAUCUAAAACCAGUC [DMSMaPseq_invitro_SARS-CoV-2_Motif_121] | 0.0363 | -0.546 | -0.0402 | -0.0985
20 | GAUCUCUUGUAGAUC | 0.0231 | -0.498 | 0.682 | 0.342
21 | GAUGAGUACGAACUUAUGUACUCAUU | -0.473 | -0.762 | -0.907 | -1.25
22 | GAUGCUGUUGUGUGUUUCAAUAGCACUUAUGCAUC | -0.542 | -0.931 | -0.907 | -0.937
23 | GAUGGCACUUGUGGCUUAGUAGAAGUUGAAAAAGGCGUUUUGCCUCAACUUGAACAGCCCUAUGUGUUCAUC | -0.0725 | 0.432 | -0.665 | -0.48
24 | GAUGGCUUUCCUUGAGGAAUCCCAUC [IAV_invivo_PB1_2_Motif_6+IAV_invivo_PB1_2_Motif_6] | -0.719 | -0.986 | -1.04 | -1.41
25 | GAUGGUCAAGUAGACUUAUUUAGAAAUGCCCGUAAUGGUGUUCUUAUUACAGAAGGUAGUGUUAAAGGUUUACAACCAUC | -0.245 | -0.181 | -0.346 | -0.421
26 | GAUGGUGGCUGUAUUAAUGCUAACCAAGUCAUCGUC | 0.129 | 1.4 | -0.273 | 0.31
27 | GAUGUAAUUAUCUUGGCAAACCACGCGAACAAAUAGAUGGUUAUGUC [DMSMaPseq_invitro_SARS-CoV-2_Motif_374] | -0.326 | -0.828 | -0.928 | -1.03
28 | GAUGUAGAAUUGUUUGAAAAUAAAACAACAUU | -0.136 | -0.444 | -0.783 | -0.878
29 | GAUGUUCUUGUUAACAACUAAACGAACAAUGUUUGUUUUUCUUGUUUUAUUGCCACUAGUCUCUAGUCAGUGUGUUAAUCUUACAACCAGAACUC [DMSMaPseq_invitro_SARS-CoV-2_Multi_63_ComplexLevel_1] | 0.256 | -0.457 | 0.637 | 0.534
30 | GAUUAUGUGUACCUUCCUUACCCAGAUCCAUCAAGAAUCCUAGGGGCCGGCUGUUUUGUAGAUGAUAUCGUAAAAACAGAUGGUACACUUAUGAUU [SHAPE_invitro_SARS-CoV-2_Multi_44_ComplexLevel_1] | 0.262 | 0.0805 | 0.359 | 0.661
31 | GAUUAUUACAGAUC [DMSMaPseq_invitro_SARS-CoV-2_Motif_169] | -0.191 | -1.16 | -0.377 | -0.695
32 | GAUUCAGAUCUUAAUGACUUUGUC [SHAPE_invivo_SARS-CoV-2_Motif_393] | -0.439 | -0.794 | -0.246 | -0.539
33 | GAUUUGGCUACUAACAAUC [SHAPE_invitro_SARS-CoV-2_Motif_40] | 0.126 | -0.0811 | 0.705 | 0.624
